A short description of this series: amyloid nucleation score (Sup35N fusion, yeast selection) (log enrichment); library NNK1; higher = more nucleation; inactive = no reads after selection. Summed up: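 DiMSum was used to calculate nucleation scores as log enrichment of output over input reads, centred on the mode score of non-aggregating sequences. Sequences with fewer than 100 input reads were not scored. Input and output came from Illumina sequencing of plasmid inserts in psi-negative yeast expressing peptides of 20 random codons fused to Sup35N, induced 24 hours with 100 μM copper sulfate and then grown 7 days at 30°C on medium lacking adenine and uracil.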

± gives the uncertainty stated by the source.

Regarding WASEMRHGWRAHNIYVGEDC, the amyloid nucleation score stood at 0.937 ± 0.59.
The same measure for GLQSKV: -0.974 ± 2.4; for SNISSHQEASWRAYRFSESV: 0.147 ± 0.57.
Consider GRVCKHIFK, for which the amyloid nucleation score was determined as 0.375 ± 1.2.
In turn, IIFCMVFDSVSDDVLYITSK displayed an amyloid nucleation score of -0.941 ± 0.99.
The substance PSRLIYDYAAFTVVGLLEMF yielded an amyloid nucleation score of -0.235 ± 0.56.
In turn, VDLLNGDWNRSLMKAKPVER showed an amyloid nucleation score of 0.17 ± 0.29.
As for SSPSMSINVYRLNKS, the amyloid nucleation score entry was “inactive”.
The substance ERENAYPSIMLVCV had an amyloid nucleation score of -0.092 ± 0.32.
Take SFDKARRARGRSLAWML: the amyloid nucleation score was determined as 0.072 ± 0.54.
Consider LVFANSHGFCGKSSLLRVGD, for which the amyloid nucleation score entry was “inactive”.
Consider VNVSVDFKREMRIPWLAGIC, for which the amyloid nucleation score was -0.651 ± 0.67.
DGICNW displayed an amyloid nucleation score of 2.61 ± 0.12.
The substance NSWKNADVWCNASMHGWSGW showed an amyloid nucleation score of 0.697 ± 0.72.
KGDMWMGPNESWVKVNLYRV gave an amyloid nucleation score of 0.039 ± 0.55.
In turn, LLAFL registered an amyloid nucleation score of -0.704 ± 0.55.
In the case of CHYGDPSGWGQLTPSTWTGE, the amyloid nucleation score is 0.573 ± 0.42.
Substance LIHYNNNVYTRWAWSSQQGE yielded an amyloid nucleation score of 2.75 ± 0.2.
QTKRSCCSFFVNL gave an amyloid nucleation score of 6.603 ± 0.05.
On to LLYIILFRNYILYKLWIRFA, for which the amyloid nucleation score is 0.572 ± 0.3.
Consider CWCSANALMCRGKLSAWNRH, for which the amyloid nucleation score result was “inactive”.
The same measure for GPSWFGVPTAAFF: 0.502 ± 0.43.
The same measure for NFAPRYLAI: 0.295 ± 0.34; for NLFTTSSCNLIFSTICFD: 7.281 ± 0.067.
In turn, FADLK returned an amyloid nucleation score of -0.88 ± 1.7.
In turn, FSLCDSKSKWLLYCSGSFNL displayed an amyloid nucleation score of 2.69 ± 0.14.
To YMKMMYAIYCLWLRHYSMLF belongs “inactive”; to RVLRIVEAVVVSSCGFVDLR, 1.69 ± 0.25.
The same measure for GCSVVNMADMG: 1.29 ± 0.45; for DRLWKSTWKGMTRLMRRSAE: -0.968 ± 0.48; for HAKHLLRKQWLDGCA: “inactive”.
Consider CWVLNFVFGDCNLSCWGN, for which the amyloid nucleation score turned out to be 7.185 ± 0.051.
To VEQLFGLAMRDLA belongs -0.448 ± 0.8; to TVSIPKPILFCEFYFRYADM, -1.67 ± 0.73.
In turn, RVPATLNLLGVRQGRD displayed an amyloid nucleation score of 0.26 ± 0.72.
ALSEFIFGLWLSFLIPRYMW came in with an amyloid nucleation score of 1.21 ± 0.56.
The same measure for SAVVTRMGGGLKLRTWHEGN: 0.53 ± 0.55; for PSSACCGSHFLCEQEFMICY: 0.146 ± 0.71; for AYNAECSVWSRRCSIAVMDL: 0.757 ± 0.58.
The same measure for LLYGA: -0.727 ± 1.4.
Regarding GNVFRLWLNM, the amyloid nucleation score was determined as 0.369 ± 0.38.
Take NVTDAI: the amyloid nucleation score result was “inactive”.
Take ACGRLFDYVAFHRLLDQTHW: the amyloid nucleation score was -0.617 ± 0.65.
LKRDVTSVSGY came in with an amyloid nucleation score of 0.348 ± 0.38.
Substance CWGWMARLAINLAGTGSNQK yielded an amyloid nucleation score of 0.119 ± 0.71.
The substance ADGWFQFWRGKYFGGRFQFT registered an amyloid nucleation score of -0.166 ± 0.61.
On to SIRLVLRFLTA, for which the amyloid nucleation score is -0.166 ± 0.46.
In the case of GFVTKDWLSVMRYIYQMLTS, the amyloid nucleation score is -0.016 ± 0.4.
Substance GLPKSFM had an amyloid nucleation score of -0.981 ± 1.3.
In turn, NTSELRGNMSRHCKNSGGVI gave an amyloid nucleation score of -0.058 ± 0.62.
In the case of RIGTTWMMCIPWVLNCNV, the amyloid nucleation score came to 6.945 ± 0.051.
TIVYATGMNMYTDAC registered an amyloid nucleation score of -0.203 ± 0.34.
Substance QVYYVCGYTSDKLLKNSYNN came in with an amyloid nucleation score of -0.125 ± 0.45.
For the substance VFKGQMVVPPIYVYLVSWMG, the amyloid nucleation score is -1.06 ± 1.7.
In the case of STNVGRILMCVQLSLWKLN, the amyloid nucleation score was found to be 0.227 ± 0.29.
DDLQCITLRFTRDASRGVSL: the amyloid nucleation score was 0.843 ± 0.84.
Substance DGSYTTRGRGHGESGRSGCW returned an amyloid nucleation score of 0.17 ± 0.42.
Take TIDVCDSHLMAYTVDWNCVW: the amyloid nucleation score was found to be 0.505 ± 0.62.
To IHNSVDKTYLCSVLNPRGYS belongs “inactive”; to DLIWPRTRYRSTVD, “inactive”.
Substance ESAERGVRGSGRGRMNGGMM had an amyloid nucleation score of -0.778 ± 0.98.
CASRFMCGPTINKWVR displayed an amyloid nucleation score of -1.02 ± 1.1.
Consider MRFAVTD, for which the amyloid nucleation score was -0.146 ± 0.23.
The substance RSRKK displayed an amyloid nucleation score of 0.34 ± 0.21.
TWMNASCKSCTYAARFSDQK displayed an amyloid nucleation score of 1.51 ± 0.56.
To GRFRSTTVWFWVLDVLYGCS belongs 0.547 ± 0.29.
VRSRLLQNLSDIPNQPIRWD displayed an amyloid nucleation score of -0.105 ± 0.33.
The same measure for YRLILVANVQMDHWES: -0.38 ± 0.44.
In turn, RQSRVQGMYHY had an amyloid nucleation score of 1.28 ± 0.48.
Consider ALMDTCSVSSARGHDPCNRP, for which the amyloid nucleation score was -0.413 ± 0.78.
For the substance GRMTFFLVWNCVSFFVTQLL, the amyloid nucleation score was -0.611 ± 2.1.
To YSLFAGLREVSMDVCNDV belongs 0.39 ± 0.5; to ESIVRFKSSRSDKI, 2.86 ± 0.075; to SACQLFGVMVPEHRRALMVW, 0.018 ± 0.42.
In the case of LRKMLMDE, the amyloid nucleation score result was “inactive”.
The substance VYHVTWRLPF gave an amyloid nucleation score of 3.4 ± 0.12.
In turn, YLTQLV registered an amyloid nucleation score of 0.528 ± 0.38.
HLLRRHYNCLSHLGWCNGLF: the amyloid nucleation score is -0.024 ± 0.29.
The same measure for TMIWLVAPPPLLAMVLY: 0.392 ± 0.6; for RHVDRLVLWHEDSVAPGETN: 0.394 ± 0.49.
With SSPIGSSSFTMGCGWREQ, the amyloid nucleation score came to 0.599 ± 0.88.
Consider TAYAFNDCEFEPVWSRIVGN, for which the amyloid nucleation score was -0.412 ± 0.48.
NGKSAQ came in with an amyloid nucleation score of 4.05 ± 0.064.
On to MGGRGGTDCRASMYSSACMG, for which the amyloid nucleation score is 1.74 ± 0.26.
To HQYVMFESLTYICLPLRDRL belongs 4.98 ± 0.1; to YLGWDRNRDYEWAIDASRAN, “inactive”.
For FVVVVGSHLGDGFCDCWVNC, the amyloid nucleation score worked out at 2.03 ± 0.24.
The substance RNSDFHFIFWY yielded an amyloid nucleation score of 0.865 ± 0.37.
Substance NNLTVLIWVMPMDRI gave an amyloid nucleation score of 1.99 ± 0.39.
Regarding NILGIAHTIGCLLLTFCCTL, the amyloid nucleation score result was “inactive”.
To GRGANLCYRTRTVLLVNNLS belongs -0.199 ± 1.2; to TPRCLGERTISGISFYKV, -1.04 ± 0.55; to TFKSTLFSYFPGPQEHARGR, 1.93 ± 0.25.
YSYKCGGVRTSTSFLSMLFV had an amyloid nucleation score of 0.811 ± 0.18.
SSFIPF gave an amyloid nucleation score of 0.1 ± 0.32.
Substance YGGFIESLLACAKGESRNMM came in with an amyloid nucleation score of -0.608 ± 1.
LFDSLEAVYRSYGKSWACYI registered an amyloid nucleation score of -1.63 ± 0.9.
For the substance TVVYDWFG, the amyloid nucleation score was -0.078 ± 0.75.
For the substance YGLEYVYVVV, the amyloid nucleation score is 0.277 ± 1.4.
For PRWSLCIPSVLSGVITTIMT, the amyloid nucleation score was found to be 0.286 ± 0.27.
The substance KFRMCEFSGAYTYGVFKNLP displayed an amyloid nucleation score of 0.834 ± 0.26.
SFRYVGCWYMARWFS yielded an amyloid nucleation score of -0.497 ± 0.3.
Consider MHFIRALIEFH, for which the amyloid nucleation score is 1.88 ± 0.2.
Regarding MTRVCL, the amyloid nucleation score is -0.035 ± 0.62.
In turn, VGVMFG displayed an amyloid nucleation score of -0.06 ± 0.69.
The substance LVFFCNM had an amyloid nucleation score of 7.824 ± 0.06.
HCCFTGRKGYSRFAVLSCST: the amyloid nucleation score amounted to 1.11 ± 0.48.
Substance LSPWSKTSIYCNLLPCIVSR registered an amyloid nucleation score of 0.571 ± 0.3.
As to TRAAYLGRGREMRCIKVAFW, the amyloid nucleation score stood at 1.31 ± 0.93.
In the case of DRMPRFLVHENVYTVPERVW, the amyloid nucleation score result was “inactive”.
To FWVFAITFTAERKLQADDLF belongs 1.84 ± 0.15.
SRYGWGTRSESRQLTSLSCT gave an amyloid nucleation score of -0.304 ± 1.3.
In turn, AYNDSAVGRAGGLFVVGLFV showed an amyloid nucleation score of -0.51 ± 0.58.
Turning to FLRTD, the amyloid nucleation score was found to be 0.171 ± 1.2.
VFGVGGTYLFIDVEAVWGSG yielded an amyloid nucleation score of 1.61 ± 0.57.
VPVWFSTSISQWSNLQ: the amyloid nucleation score was -1.09 ± 2.4.
In turn, FGPRSDAVLVLYFSYVSPLD came in with an amyloid nucleation score of -1.79 ± 2.4.
For the substance LRGIDRTALGSGSERYLCLL, the amyloid nucleation score is -0.253 ± 0.59.
QRKPVCSGLTLFHMLNRVTK: the amyloid nucleation score was -0.484 ± 0.65.
SGPGDKVAISMNIY had an amyloid nucleation score of 5.16 ± 0.087.
In the case of GVNCKYVVLKNNVIWTHCLR, the amyloid nucleation score was found to be 6.453 ± 0.05.
In turn, CLEVFKNGCRNLRTGRVINR came in with an amyloid nucleation score of 1.03 ± 0.9.
With SQIADHIRSPRNL, the amyloid nucleation score is -1.37 ± 2.1.
Turning to SIQLMNVFDQVVSQASIKHG, the amyloid nucleation score entry was “inactive”.
The same measure for CGWSSMIVP: 0.343 ± 0.63; for YASVIVTQHRTMICRQTLCR: 1.46 ± 0.51; for VNVTCMFWD: 4.05 ± 0.058.
For NSWDISRSMNVLGNRVNRFP, the amyloid nucleation score was -0.765 ± 0.37.
The same measure for QFLLLPGNHHRFRSRHIRTL: -0.255 ± 0.26.
To CAYVVVLLCSVLVDAGYVCR belongs 1.94 ± 0.17; to APRYHAVFLLII, -0.505 ± 0.79.
The same measure for LMVNLYPY: 0.16 ± 0.4; for TQDEMVSVRNKLSCVTLE: 4.04 ± 0.06.
As to AVFLVRAPSTRGLARMVDLA, the amyloid nucleation score result is “inactive”.
In turn, RAMVLCGGCTWPAREDNEKV showed an amyloid nucleation score of 0.506 ± 0.33.
As for WTVLGYFRALQASLRASAGM, the amyloid nucleation score was determined as 0.099 ± 0.71.
Turning to DFARQSSHPETWSSGDLSHS, the amyloid nucleation score stood at 0.239 ± 0.96.
WNEADWHMCH returned an amyloid nucleation score of 1.34 ± 0.38.
The substance GCVVI showed an amyloid nucleation score of 0.258 ± 0.26.
The same measure for AVGGDSMYSLQSGYKLILAS: 0.288 ± 0.35; for NFCDSSGI: -0.912 ± 1.2.

The values are drawn from the supplement of paper PMC12042874.
